These results are taken from patent US20190284266A1.

The target of one assay is Antibody N32S. In words: MSD peptide inhibition: 1 ng/ml antibody pre-incubated with graded Ptau 386-408 (pS396), then wells coated with Ptau 386-408 (pS396/pS404) (competitor).
A further assay concerns the target Antibody N32S, A101T. Described as above.
For assay [1], the target named is hyperphosphorylated human tau P301L (0N4R) of rTg4510 mice, 64 kDa and 70 kDa species (human) (UniProt P10636). The assay can be described thus: binding of pathological versus non-pathological tau, brain material (Table 5).
Assay [2] has as its target hyperphosphorylated (pathological) tau from human Alzheimer's disease brain, phosphorylated at serine 396 (human) (UniProt P10636). In words: MSD fluid phase inhibition of Ptau antigen capture on C10-2 coated plate (competitor C10-2).
Assay [3] concerns the target tau phosphorylated at Serine 422 in Alzheimer's disease brain extract (human) (UniProt P10636). In words: immunodepletion of AD brain extract with antibody-coated beads, P-S422 western blot. On the technique in general: A western blot detects proteins with antibodies after separation by electrophoresis.
Assay [4] addresses hyperphosphorylated (pathological) tau from human Alzheimer's disease brain, phosphorylated at serine 396 (human) (UniProt P10636). The assay can be described thus: binding of pathological versus non-pathological tau, brain material (Table 5).
Assay [5] has as its target tau phosphorylated at Serine 199/202 in Alzheimer's disease brain extract (human) (UniProt P10636). In words: immunodepletion of AD brain extract with 5 µg antibody on beads, P-S199/202 western blot.
The target in assay [6] is hyperphosphorylated (pathological) tau from human Alzheimer's disease brain, phosphorylated at serine 396 (human) (UniProt P10636). The assay can be described thus: immunodepletion of AD brain extract with antibody-coated beads, pS396 western blot.
The target in assay [7] is total tau of Alzheimer's disease brain extract (human) (UniProt P10636). The assay can be described thus: immunodepletion of AD brain extract with antibody-coated beads, Tau5 western blot.
Assay [8] shares this target. In words: immunodepletion of AD brain extract with antibody on Protein G magnetic beads; remaining total tau by Tau5 western blot, normalised to gapdh.
The target in assay [9] is hyperphosphorylated human tau P301L (0N4R) of rTg4510 mice, 64 kDa and 70 kDa species (human) (UniProt P10636). The assay can be described thus: cell-based or functional assay.
Assay [10] addresses hyperphosphorylated (pathological) tau from human Alzheimer's disease brain, phosphorylated at serine 396 (human) (UniProt P10636). In words: immunodepletion of AD brain extract, pS396 western blot, 75 ng antibody.
Assay [11] shares this target. In words: MSD fluid phase inhibition of Ptau antigen capture on C10-2 coated plate (competitor C10-2); lower end of the printed range 10-20 nM.
The target is the same in assay [12]. In words: MSD fluid phase inhibition: antibody pre-incubated with AD-P3, capture on coated mouse C10-2 (competitor); two-site fit, low affinity part (predominant); two-site fit, low affinity part (predominant).
For assay [13] the target is unchanged. In words: MSD fluid phase inhibition of Ptau antigen capture on C10-2 coated plate (competitor C10-2); upper end of the printed range 10-20 nM.
Assay [14] shares this target. In words: MSD fluid phase inhibition of AD-P3 capture, two-site fit.
Assay [15] deals with tau phosphorylated at Serine 199/202 in Alzheimer's disease brain extract (human) (UniProt P10636). In words: immunodepletion of AD brain extract with antibody-coated beads, P-S199/202 western blot.
Assay [16] has as its target hyperphosphorylated (pathological) tau from human Alzheimer's disease brain, phosphorylated at serine 396 (human) (UniProt P10636). The assay can be described thus: immunodepletion of AD brain extract with antibody on Protein G magnetic beads; remaining P-S396 tau by western blot, normalised to gapdh.
Assay [17] shares this target. In words: MSD fluid phase inhibition: antibody pre-incubated with AD-P3, capture on coated mouse C10-2 (competitor); two-site fit, high affinity part; two-site fit, high affinity part (less than 25% of total binding).

In general, IC50 refers to the concentration at which inhibition is half-maximal. Read a low IC50 as higher potency. Regarding Ptau 386-408 (pS396) peptide, the IC50 with Antibody N32S was determined as 50 nM; in the assay with Antibody N32S, A101T, 34 nM.
Consider IPN002 (antibody), for which the TG/wt (ratio of binding to transgenic over wild type mouse brain tau) in assay [1] amounted to 37 fold.
Substance PHF-13 (antibody) yielded an IC50 in [2] of 500 to 1000 nM.
Regarding HJ8.5 (antibody), in assay [1], the TG/wt (ratio of binding to transgenic over wild type mouse brain tau) is 51 fold.
As for 2.10.3 antibody, in assay [3], the amount of antibody required to remove 50% of the pS422 tau is 0.42 µg and the percent of pS422 tau removed was more than 90%. Further, the AD/ctrl (ratio of binding to AD brain tau over control brain tau) in [4] was 5 fold. Further, in assay [1], the TG/wt (ratio of binding to transgenic over wild type mouse brain tau) came to 2 fold. The substance further displayed a max percent reduction of pS199/202 tau in assay [5] of 52%. In assay [6], this substance returned an amount of antibody for half of the max effect of 0.63 µg; a max effect, percent of pS396 tau removed of 60%; a percent of pS396 tau removed of 55%. For the same substance, in assay [7], the percent of total tau removed was less than 24%. Also, the EC50 (read off the curve) in [8] came out at 0.3 µg.
In the case of Antibody C10-2 (humanized C10-2), in assay [9], the decrease in aggregated tau in HEK293 cells expressing hTau-P301L seeded with Tg4510 homogenate pre-incubated with antibody (Cisbio tau aggregation assay) is 40%; the reduction of P3 and S1p induced tau seeding in rTg4510 cortical neurons (Cisbio tau aggregation assay) is 23%. Moreover, in assay [3], the amount of antibody required to remove 50% of the pS422 tau was found to be 0.27 µg and the percent of pS422 tau removed was more than 90%. Further, the AD/ctrl (ratio of binding to AD brain tau over control brain tau) in assay [4] was more than 100 fold. Moreover, the TG/wt (ratio of binding to transgenic over wild type mouse brain tau) in [1] amounted to 118 fold. Besides, the percent decrease in the pS396 signal at 75 ng antibody in assay [10] was less than 6%. Besides, the IC50 in assay [11] was more than 10 nM. This substance registered an IC50 in assay [12] of 630 nM. In addition, the IC50 in assay [13] is less than 20 nM. For the same substance, in assay [14], the share of high affinity binding in the total binding is less than 25%. In assay [6], this substance returned an amount of antibody for half of the max effect of 0.3 µg and a max effect, percent of pS396 tau removed of 88%. In [15], this substance yielded an amount of antibody for 50% of the effect of 0.34 µg and a percent of pS199/202 tau removed of 69%. In assay [16], this substance showed an EC50 (read off the curve) of 0.2 µg. In addition, in assay [17], the concentration for half-maximal inhibition (IC50) worked out at 14 nM.
Regarding “Anti-Tau Therapeutic Antibody NI-105-4E4”, the TG/wt (ratio of binding to transgenic over wild type mouse brain tau) in assay [1] came out at 1 fold.
